1 molecule from patent US20060073148A1 can be followed below.

The target in assay [1] is native human IL-13 (crude preparation from activated human cord blood Th2 cells) (human) (UniProt P35225). Nature of the assay: cell-based or functional assay.
In assay [2] the target is cynomolgus monkey IL-13 (NHP IL-13), recombinant (cynomolgus monkey). Nature of the assay: cell-based or functional assay.
Sequence of cynomolgus monkey IL-13 (NHP IL-13), recombinant (cynomolgus monkey) (Q5I6E4 other isoform, or with tags, fused parts or gaps): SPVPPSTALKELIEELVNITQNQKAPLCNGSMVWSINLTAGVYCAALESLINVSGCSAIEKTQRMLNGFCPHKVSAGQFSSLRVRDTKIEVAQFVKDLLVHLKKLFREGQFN

Sequence of native human IL-13 (crude preparation from activated human cord blood Th2 cells) (human) (P35225 other isoform, or with tags, fused parts or gaps, form in doubt): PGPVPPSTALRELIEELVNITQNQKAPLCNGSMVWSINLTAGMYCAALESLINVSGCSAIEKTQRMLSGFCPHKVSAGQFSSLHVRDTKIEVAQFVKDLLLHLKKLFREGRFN

B1: antibody with the murine heavy chain of MJ2-7 and a humanized light chain (antibody, part only; not given: humanized light chain, V domains shown, part only)
VH: EVQLQQSGAELVKPGASVKLSCTGSGFNIKDTYIHWVKQRPEQGLEWIGRIDPANDNIKYDPKFQGKATITADTSSNTAYLQLNSLTSEDTAVYYCARSEENWYDFFDYWGQGTTLTVSS
Take B1: the IC50, STAT6 phosphorylation assay in assay [1] was found to be 0.554 nM. The IC50, CD23 expression assay in assay [2] worked out at 0.308 nM.
